Source: patent publication US20250339531A1, “DUX4 POLYPEPTIDES AND NUCLEIC ACIDS FOR TREATING INFLAMMATORY AND AUTOIMMUNE CONDITIONS” (Fred Hutchinson Cancer Center, priority 2021, published 2025)

System: proteins that co-immunoprecipitated with DUX4-CTD constructs expressed in MB135 myoblasts
Assay: LC-MS of proteins co-immunoprecipitated with DUX4-CTD (Table 1) and western validation
Format: binding, human
Design: key to 4. mL1dL2 + Dox + IFNG / 4. + IFNG mix / 4. longCTD + Dox + IFNG / 3. + IFNg + Dox longCTD / 3. + Dox longCTD / 3. + IFNG longCTD: peptide-spectrum matches (PSMs) per protein
Details: kind of count not given; for 4. + IFNG mix: LC-MS value per protein co-immunoprecipitated from MB135 myoblasts, + IFNG mix sample (no Dox); for 4. mL1dL2 + Dox + IFNG: LC-MS value per protein co-immunoprecipitated with DUX4-CTD construct mL1dL2 in MB135 myoblasts
In short: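 FLAG-tagged DUX4-CTD expressed in doxycycline-induced MB135 myoblasts, some also IFNG-treated; nuclear lysates in pH 7.4 NP-40 IP buffer were pre-cleared, then anti-FLAG immunoprecipitated 3 h at 4 °C. For LC-MS, FLAG-peptide elution, in-gel trypsin digest, Orbitrap analysis; proteins with ≥2 PSMs in both experiments categorised and ranked by total PSMs.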

Row | Molecule | 4. + IFNG mix | 4. mL1dL2 + Dox + IFNG
1 | SERPINH1 (protein) AEVKKPAAAAAPGTAEKLSPKAATLAERSAGLAFSLYQAMAKDQAVENILVSPVVVASSLGLVSLGGKATTASQAKAVLSAEQLRDEEVHAGLGELLRSLSNSTARNVTWKLGSRLYGPSSVSFADDFVRSSKQHYNCEHSKINFRDKRSALQSINEWAAQTTDGKLPEVTKDVERTDGALLVNAMFFKPHWDEKFHHKMVDNRGFMVTRSYTVGVMMMHRTGLYNYYDDEKEKLQIVEMPLAHKLSSLIILMPHHVEPLERLEKLLTKEQLKIWMGKMQKKAVAISLPKGVVEVTHDLQKHLAGLGLTEAIDKNKADLSRMSGKKDLYLASVFHATAFELDTDGNPFDQDIYGREELRSPKLFYADHPFIFLVRDTQSGSLLFIGRLVRPKGDKMRDEL | 5 | 5
2 | P4HA1 (protein) HPGFFTSIGQMTDLIHTEKDLVTSLKDYIKAEEDKLEQIKKWAEKLDRLTSTATKDPEGFVGHPVNAFKLMKRLNTEWSELENLVLKDMSDGFISNLTIQRQYFPNDEDQVGAAKALLRLQDTYNLDTDTISKGNLPGVKHKSFLTAEDCFELGKVAYTEADYYHTELWMEQALRQLDEGEISTIDKVSVLDYLSYAVYQQGDLDKALLLTKKLLELDPEHQRANGNLKYFEYIMAKEKDVNKSASDDQSDQKTTPKKKGVAVDYLPERQKYEMLCRGEGIKMTPRRQKKLFCRYHDGNRNPKFILAPAKQEDEWDKPRIIRFHDIISDAEIEIVKDLAKPRLRRATISNPITGDLETVHYRISKSAWLSGYENPVVSRINMRIQDLTGLDVSTAEELQVANYGVGGQYEPHFDFARKDEPDAFKELGTGNRIATWLFYMSDVSAGGATVFPEVGASVWPKKGTAVFWYNLFASGEGDYSTRHAACPVLVGNKWVSNKWLHERGQEFRRPCTLSELE | 1 | 27
3 | RPN1 (protein) ASSEAPPLINEDVKRTVDLSSHLAKVTAEVVLAHLGGGSTSRATSFLLALEPELEARLAHLGVQVKGEDEEENNLEVRETKIKGKSGRFFTVKLPVALDPGAKISVIVETVYTHVLHPYPTQITQSEKQFVVFEGNHYFYSPYPTKTQTMRVKLASRNVESYTKLGNPTRSEDLLDYGPFRDVPAYSQDTFKVHYENNSPFLTITSMTRVIEVSHWGNIAVEENVDLKHTGAVLKGPFSRYDYQRQPDSGISSIRSFKTILPAAAQDVYYRDEIGNVSTSHLLILDDSVEMEIRPRFPLFGGWKTHYIVGYNLPSYEYLYNLGDQYALKMRFVDHVFDEQVIDSLTVKIILPEGAKNIEIDSPYEISRAPDELHYTYLDTFGRPVIVAYKKNLVEQHIQDIVVHYTFNKVLMLQEPLLVVAAFYILFFTVIIYVRLDFSITKDPAAEARMKVACITEQVLTLVNKRIGLYRHFDETVNRYKQSRDISTLNSGKKSLETEHKALTSEIALLQSRLKTEGSDLCDRVSEMQKLDAQVKELVLKSAVEAERLVAGKLKKDTYIENEKLISGKRQELVTKIDHILDAL | 2 | 7
4 | AP2B1 (protein) TDSKYFTTNKKGEIFELKAELNNEKKEKRKEAVKKVIAAMTVGKDVSSLFPDVVNCMQTDNLELKKLVYLYLMNYAKSQPDMAIMAVNSFVKDCEDPNPLIRALAVRTMGCIRVDKITEYLCEPLRKCLKDEDPYVRKTAAVCVAKLHDINAQMVEDQGFLDSLRDLIADSNPMVVANAVAALSEISESHPNSNLLDLNPQNINKLLTALNECTEWGQIFILDCLSNYNPKDDREAQSICERVTPRLSHANSAVVLSAVKVLMKFLELLPKDSDYYNMLLKKLAPPLVTLLSGEPEVQYVALRNINLIVQKRPEILKQEIKVFFVKYNDPIYVKLEKLDIMIRLASQANIAQVLAELKEYATEVDVDFVRKAVRAIGRCAIKVEQSAERCVSTLLDLIQTKVNYVVQEAIVVIRDIFRKYPNKYESIIATLCENLDSLDEPDARAAMIWIVGEYAERIDNADELLESFLEGFHDESTQVQLTLLTAIVKLFLKKPSETQELVQQVLSLATQDSDNPDLRDRGYIYWRLLSTDPVTAKEVVLSEKPLISEETDLIEPTLLDELICHIGSLASVYHKPPNAFVEGSHGIHRKHLPIHHGSTDAGDSPVGTTTATNLEQPQVIPSQGDLLGDLLNLDLGPPVNVPQVSSMQMGAVDLLGGGLDSLVGQSFIPSSVPATFAPSPTPAVVSSGLNDLFELSTGIGMAPGGYVAPKAVWLPAVKAKGLEISGTFTHRQGHIYMEMNFTNKALQHMTDFAIQFNKNSFGVIPSTPLAIHTPLMPNQSIDVSLPLNTLGPVMKMEPLNNLQVAVKNNIDVFYFSCLIPLNVLFVEDGKMERQVFLATWKDIPNENELQFQIKECHLNADTVSSKLQNNNVYTIAKRNVEGQDMLYQSLKLTNGIWILAELRIQPGNPNYTLSLKCRAPEVSQYIYQVYDSILKN |  | 1
5 | PDIA3 (protein) SDVLELTDDNFESRISDTGSAGLMLVEFFAPWCGHCKRLAPEYEAAATRLKGIVPLAKVDCTANTNTCNKYGVSGYPTLKIFRDGEEAGAYDGPRTADGIVSHLKKQAGPASVPLRTEEEFKKFISDKDASIVGFFDDSFSEAHSEFLKAASNLRDNYRFAHTNVESLVNEYDDNGEGIILFRPSHLTNKFEDKTVAYTEQKMTSGKIKKFIQENIFGICPHMTEDNKDLIQGKDLLIAYYDVDYEKNAKGSNYWRNRVMMVAKKFLDAGHKLNFAVASRKTFSHELSDFGLESTAGEIPVVAIRTAKGEKFVMQEEFSRDGKALERFLQDYFDGNLKRYLKSEPIPESNDGPVKVVVAENFDEIVNNENKDVLIEFYAPWCGHCKNLEPKYKELGEKLSKDPNIVIAKMDATANDVPSPYEVRGFPTIYFSPANKKLNPKKYEGGRELSDFISYLQREATNPPVIQEEKPKKKKKAQEDL | 9 | 3
6 | ASPH (protein) MAQRKNAKSSGNSSSSGSGSGSTSAGSSSPGARRETKHGGHKNGRKGGLSGTSFFTWFMVIALLGVWTSVAVVWFDLVDYEEVLGKLGIYDADGDGDFDVDDAKVLLGLKERSTSEPAVPPEEAEPHTEPEEQVPVEAEPQNIEDEAKEQIQSLLHEMVHAEHVEGEDLQQEDGPTGEPQQEDDEFLMATDVDDRFETLEPEVSHEETEHSYHVEETVSQDCNQDMEEMMSEQENPDSSEPVVEDERLHHDTDDVTYQVYEEQAVYEPLENEGIEITEVTAPPEDNPVEDSQVIVEEVSIFPVEEQQEVPPETNRKTDDPEQKAKVKKKKPKLLNKFDKTIKAELDAAEKLRKRGKIEEAVNAFKELVRKYPQSPRARYGKAQCEDDLAEKRRSNEVLRGAIETYQEVASLPDVPADLLKLSLKRRSDRQQFLGHMRGSLLTLQRLVQLFPNDTSLKNDLGVGYLLIGDNDNAKKVYEEVLSVTPNDGFAKVHYGFILKAQNKIAESIPYLKEGIESGDPGTDDGRFYFHLGDAMQRVGNKEAYKWYELGHKRGHFASVWQRSLYNVNGLKAQPWWTPKETGYTELVKSLERNWKLIRDEGLAVMDKAKGLFLPEDENLREKGDWSQFTLWQQGRRNENACKGAPKTCTLLEKFPETTGCRRGQIKYSIMHPGTHVWPHTGPTNCRLRMHLGLVIPKEGCKIRCANETKTWEEGKVLIFDDSFEHEVWQDASSFRLIFIVDVWHPELTPQQRRSLPAI |  | 1
